Earlier results in PMC13428679.

Key:
[1] = target: Skp1 (Dictyostelium discoideum) (UniProt P52285)

Fbs1 (Cavia porcellus), sequence (Q80UW2 whole entry): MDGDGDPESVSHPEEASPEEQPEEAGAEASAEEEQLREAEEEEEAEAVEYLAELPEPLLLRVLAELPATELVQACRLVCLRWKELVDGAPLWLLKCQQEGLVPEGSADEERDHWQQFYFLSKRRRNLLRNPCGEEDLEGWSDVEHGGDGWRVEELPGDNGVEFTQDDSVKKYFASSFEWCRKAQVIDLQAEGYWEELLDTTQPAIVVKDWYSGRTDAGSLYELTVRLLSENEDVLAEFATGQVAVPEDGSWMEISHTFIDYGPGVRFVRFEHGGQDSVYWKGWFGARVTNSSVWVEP

Row | Kd (Fbs1 (Cavia porcellus)) | Kd [1] | Substance
1 | 25 µM | – | Skp1 (from UniProt P63208)
2 | – | 2.5 µM | Skp1 (from UniProt P52285)
